The data set has as its system CN1CCC[C@H]1c1cccnc1. The data set is described as follows: cells, lysate or membranes named. As to conditions: other: nicotine demethylase reaction, yeast microsomes, 25° C., pH 7.1, mean±standard error.

As a reminder, the Km is the concentration of substrate that gives half-maximal velocity. For NtabCYP82E5v2 (Nicotiana tabacum), the Km worked out at 5.6 ± 1.4 µM and the Vmax is 0.7±0.02 nmol min^−1 mg^−1 protein.

The record behind these values is patent US11293031B2.
